This note sets out measurements from patent US20240043540A1 (Innovent, published 2024).

Test [1] deals with T1, recombinant human 4Ig-B7H3 protein (human, UniProt Q5ZPR3 29-461).
T1 construct: also called human B7H3 protein; SINO BIOLOGICAL Catalog No. 11188-H08H
T1 sequence: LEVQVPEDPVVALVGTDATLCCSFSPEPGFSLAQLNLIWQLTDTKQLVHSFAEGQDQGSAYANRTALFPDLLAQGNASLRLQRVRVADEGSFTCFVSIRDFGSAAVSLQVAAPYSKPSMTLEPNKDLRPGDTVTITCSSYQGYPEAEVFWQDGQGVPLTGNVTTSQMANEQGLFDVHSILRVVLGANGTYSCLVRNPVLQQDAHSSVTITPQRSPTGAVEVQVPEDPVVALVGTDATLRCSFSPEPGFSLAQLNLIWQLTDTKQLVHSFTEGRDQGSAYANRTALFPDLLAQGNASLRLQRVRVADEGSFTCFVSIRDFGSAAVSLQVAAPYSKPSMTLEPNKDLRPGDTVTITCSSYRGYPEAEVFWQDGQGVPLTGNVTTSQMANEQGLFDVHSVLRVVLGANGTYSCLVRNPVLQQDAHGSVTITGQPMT
In words: bio-layer interferometry (ForteBio), as in Example 3. On the procedure: (§1) Briefly, AMQ (Pall, 1506091) (for sample detection) or AHQ (Pall, 1502051) (for positive control detection) sensors were equilibrated offline in an assay buffer for 30 min, and were equilibrated online for 60 s to establish a baseline. The purified antibodies obtained as described above were loaded online onto an AHQ sensor (ForteBio) for the ForteBio affinity assay. The sensor with the loaded antibodies was then exposed to the antigens (including human 4Ig-B7H3, human 2Ig-B7H3 (ACRO, Catalog No. B73-H52E2) and cynomolgus monkey B7H3 (SINO BIOLOGICAL, Catalog No. 90806-C02H-50)) before transferring the sensor to the assay buffer for dissociation rate measurement. The KD values were analyzed using ForteBio analysis software.
(§2) The binding affinity of the humanized antibodies obtained in Example 4 for the antigens (human B7H3 and cynomolgus monkey B7H3) was determined by ForteBio assay as described in Example 3, which was expressed as an equilibrium dissociation constant (KD).
In general terms: In BLI a coated tip is dipped into the sample, and binding shifts an interference pattern.

The target of test [2] is T2, recombinant human 2Ig-B7H3 protein (human, UniProt Q5ZPR3 29-466).
T2 construct: Bought soluble recombinant protein; also called ACRO Catalog No. B73-H52E2
T2 sequence: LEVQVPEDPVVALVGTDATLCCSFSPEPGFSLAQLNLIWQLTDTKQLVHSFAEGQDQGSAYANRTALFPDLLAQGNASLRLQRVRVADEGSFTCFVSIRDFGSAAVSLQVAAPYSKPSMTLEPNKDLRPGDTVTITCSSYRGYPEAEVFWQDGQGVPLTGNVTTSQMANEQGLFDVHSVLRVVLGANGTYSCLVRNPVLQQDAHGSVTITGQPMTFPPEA
The description is as above. On the procedure: as §1, §2

For test [3], the target named is T3, human 2Ig-B7H3 overexpressed on CHO-S cells (CHOS-hB7H3-2Ig) (human, UniProt Q5ZPR3 29-534).
T3 construct: also called cells overexpressing human 2Ig-B7H3
T3 sequence: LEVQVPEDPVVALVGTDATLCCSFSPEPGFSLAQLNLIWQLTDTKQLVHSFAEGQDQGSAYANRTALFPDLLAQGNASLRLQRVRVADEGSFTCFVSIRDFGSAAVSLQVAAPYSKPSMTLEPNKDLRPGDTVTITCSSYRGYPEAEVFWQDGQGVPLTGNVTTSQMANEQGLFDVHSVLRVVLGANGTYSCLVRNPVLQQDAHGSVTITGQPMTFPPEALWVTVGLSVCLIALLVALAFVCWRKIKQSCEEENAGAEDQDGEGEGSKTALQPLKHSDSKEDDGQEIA
The test is described as follows: FACS (flow cytometry, MFI) on CHO-S cells overexpressing human 2Ig-B7H3, PE-conjugated anti-human Fc detection; panel 'Cell-level affinity of CHOS hB7H3(2Ig)'. As to the method: (§3) 1) CHOS-hB7H3-4Ig, CHOS-hB7H3-2Ig, and CHOS-cyno B7H3 cells were diluted with a PBS solution to 2×10⁶ cells/mL, and added to a U-bottom 96-well plate at 100 μL/well. Three-fold serially diluted antibodies were added.
(§4) 2) The above mixture was incubated on ice for 30 min. The cell suspension was centrifuged at 400 g for 5 min to remove the supernatant, and the cells were washed with a PBS solution to remove the unbound antibodies. 100 μL of the solution of PE-conjugated anti-human Fc antibody (SouthernBiotech) diluted at a ratio of 1:200 was added to each well, and the cells were incubated in the dark on ice for 30 min. Then the cell suspension was centrifuged at 400 g for 5 min to remove the supernatant. The cells were washed with PBS twice to remove the unbound PE-conjugated anti-human Fc antibody. Then the cells were resuspended with 100 μL of PBS, and the binding of the antibody to cells was assayed by FACS.
On the technique in general: A flow cytometer gives signals particle by particle.

Test [4] deals with T4, human 4Ig-B7H3 overexpressed on CHO-S cells (CHOS-hB7H3-4Ig) (human, UniProt Q5ZPR3 29-534).
T4 construct: The entry includes the signal peptide; also called CHO-hB7H3-4Ig; cells overexpressing human 4Ig-B7H3
T4 sequence: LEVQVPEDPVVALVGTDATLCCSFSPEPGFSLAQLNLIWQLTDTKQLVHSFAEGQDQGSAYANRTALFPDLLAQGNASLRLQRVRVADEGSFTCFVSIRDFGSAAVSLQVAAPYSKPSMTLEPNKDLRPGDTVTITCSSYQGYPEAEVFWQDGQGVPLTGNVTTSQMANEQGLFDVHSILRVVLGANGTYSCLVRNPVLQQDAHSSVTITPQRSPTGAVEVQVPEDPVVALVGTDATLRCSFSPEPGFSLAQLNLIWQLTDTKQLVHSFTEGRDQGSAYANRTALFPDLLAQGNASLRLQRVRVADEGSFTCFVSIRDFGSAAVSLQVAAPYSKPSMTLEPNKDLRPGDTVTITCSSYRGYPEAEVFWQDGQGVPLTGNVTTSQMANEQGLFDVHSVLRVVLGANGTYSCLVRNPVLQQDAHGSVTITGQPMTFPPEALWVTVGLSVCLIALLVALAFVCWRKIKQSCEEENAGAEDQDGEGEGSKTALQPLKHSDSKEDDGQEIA
In words: FACS (flow cytometry, MFI) on CHO-S cells overexpressing human 4Ig-B7H3, PE-conjugated anti-human Fc detection; panel 'Cell-level affinity of CHOS hB7H3(4Ig)'. On the procedure: as §3, §4

Test [5] addresses T5, recombinant cynomolgus monkey B7H3 protein (cynomolgus monkey, UniProt Q7TPB4 26-248 (rat entry)).
T5 construct: also called SINO BIOLOGICAL Catalog No. 90806-C02H-50
T5 chain: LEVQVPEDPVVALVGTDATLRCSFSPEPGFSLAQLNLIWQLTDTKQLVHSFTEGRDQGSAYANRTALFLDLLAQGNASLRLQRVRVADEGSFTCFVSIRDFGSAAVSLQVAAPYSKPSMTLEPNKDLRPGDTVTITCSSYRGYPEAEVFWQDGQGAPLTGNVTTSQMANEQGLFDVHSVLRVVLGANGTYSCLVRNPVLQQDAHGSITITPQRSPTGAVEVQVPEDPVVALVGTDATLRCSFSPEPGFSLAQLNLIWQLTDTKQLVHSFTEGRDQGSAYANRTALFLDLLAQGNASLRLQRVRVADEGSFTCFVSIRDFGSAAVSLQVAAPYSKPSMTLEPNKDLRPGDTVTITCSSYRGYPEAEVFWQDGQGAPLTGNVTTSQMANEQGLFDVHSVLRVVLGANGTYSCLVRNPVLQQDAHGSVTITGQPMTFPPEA
In words: bio-layer interferometry (ForteBio), as in Example 3. On the procedure: as §1, §2

For test [6], the target named is T5, recombinant cynomolgus monkey B7H3 …. The test is described as follows: bio-layer interferometry (ForteBio), antibody loaded on sensor, antigen in solution. As to the method: (§5) The equilibrium dissociation constant (KD) for binding of the antibodies of the present invention to human B7H3 was determined by bio-layer interferometry (ForteBio). The ForteBio affinity assay was conducted according to the method (Estep, P et al., High throughput solution Based measurement of antibody-antigen affinity and epitope binding. mAbs, 2013.5(2): 270-8) known in the art.
as §1

In test [7] the target is T1, recombinant human 4Ig-B7H3 protein. The description is as above. On the procedure:
as §5, §1

In test [8] the target is T2, recombinant human 2Ig-B7H3 protein. The test is described as above. As to the method:
as §5, §1

B1: Hz20G5 humanized antibody (antibody, human IgG1, kappa, V domains shown)
VH: QVQLVQSGAEVKKPGASVKVSCKASGYTFTEYIMHWVRQAPGQRLEWMGGINPGTGGTTYNQKFKDRVTITVDTSASTAYMELSSLRSEDTAVYYCTRRTPPWHFAVWGQGTLVTVSS
VL: DIQLTQSPSFLSASVGDRVTITCSASSSVSYIHWYQQKPGKAPKRWIYDTSRLASGVPSRFSGSGSGTEFTLTISSLQPEDFATYYCQQWSSAPLTFGGGTKVEIKR
Usually Kd stands for the free concentration of one partner at which half of the binding sites on the other are occupied at equilibrium, for simple one-to-one binding. As usually defined, the EC50 is the concentration needed to bring the measured effect to its halfway point. Turning to B1, the equilibrium dissociation constant (Kd) in test [1] came to 0.371 nM; in test [2], 6.3 nM. Moreover, the EC50 came out at 7.54 nM in test [3] and 6.28 nM in test [4].

B2: Hz19A2 humanized antibody (antibody, human IgG1, kappa, V domains shown)
VH: QVQLVQSGAEVKKPGASVKVSCKASGYIFTSYWIHWVRQAPGQGLEWMGRIYPGTESTFYNEKFKGRVTMTRDTSTSTVYMELSSLRSEDTAVYYCHFITASDWYFDVWGQGTLVTVSS
VL: EIVLTQSPATLSLSPGERATLSCSVSSSVQSNYLYWYQQKPGQAPRLLIYGTSNLASGIPARFSGSGSGTDFTLTISSLEPEDFAVYYCYQWSSYPFTFGQGTKLEIKR
On to B2, for which the dissociation constant (Kd) came out at 0.968 nM in test [5], 0.601 nM in test [1] and 10.4 nM in test [2]. In addition, the results for the EC50 in test [3] and in test [4] were 138 nM and 8.51 nM, respectively.

B3: Ch19A2 chimeric antibody (antibody, human IgG1, kappa, V domains shown)
VH: EVQLQQSGAELVRPGASVKLSCKTSGYIFTSYWIHWIKQRSGQGLEWIARIYPGTDSTFYNEKFKGRATLTADKSSSTVYLQLNSLKSEDSAVYFCHFITASDWYFDVWGAGTTVTVSS
VL: DIVLTQSPAIMSASPGEKVTLTCSVSSSVNSNYLYWYQQKPGSSPKLWIYGTSNLASGVPARFSGSGSGPSYSLTISSMEAEDAASYFCYQWSSYPFTFGSGTKLEIKR
On to B3, for which the Kd in test [6] was 0.59 nM; in test [7] it was 0.362 nM; in test [8], 5.74 nM.

B4: Ch20G5 chimeric antibody (antibody, human IgG1, kappa, V domains shown)
VH: EVQLQQSVPELVKPGASVKISCKTSGYTFTEYIMHWVKQSHGKNLEWIGGINPNNGGTTYNQKFKDKATLTVDKSSSTAYMELHNLTSEDSAVYYCTRRTPPWHFAVWGAGTSLTVSS
VL: DIVLTQSPTIMSASPGEKVTMTCSASSSVSYIHWYQQKSGTSPKRWIFDTSRLASGVPARFSGSGSGTSYSLTISSMEAEDAATYYCQQWSSAPLTFGTGTTLELKR
In the case of B4, the Kd in test [6] amounted to 0.713 nM; in test [7], 0.236 nM; in test [8], 3.18 nM.

B5: MGA271 (positive control antibody) (antibody, V domains shown)
VH: EVQLVESGGGLVQPGGSLRLSCAASGFTFSSFGMHWVRQAPGKGLEWVAYISSDSSAIYYADTVKGRFTISRDNAKNSLYLQMNSLRDEDTAVYYCGRGRENIYYGSRLDYWGQGTTVTVSS
VL: DIQLTQSPSFLSASVGDRVTITCKASQNVDTNVAWYQQKPGKAPKALIYSASYRYSGVPSRFSGSGSGTDFTLTISSLQPEDFATYYCQQYNNYPFTFGQGTKLEIK
notes: also called Enoblituzumab
As for B5, the dissociation constant Kd was determined as 1.87 nM in test [5]; 0.939 nM in test [1]; 782 nM in test [2]; 1.66 nM in test [6]; 0.636 nM in test [7]; 187 nM in test [8]. The EC50 turned out to be 100 nM in test [3] and 8.54 nM in test [4].
